Experimental data taken from article PMC3104517 (Nature Communications, 2011).

B1: AnxA5 triple mutant R16E/K27E/K56E (natural protein, rat)
chain: ALRGTVTDFSGFDGEADAEVLRKAMEGLGTDEDSILNLLTARSNAQRQQIAEEFETLFGRDLVNDMKSELTGKFEKLIVALMKPSRLYDAYELKHALKGAGTDEKVLTEIIASRTPEELRAIKQAYEEEYGSNLEDDVVGDTSGYYQRMLVVLLQANRDPDTAIDDAQVELDAQALFQAGELKWGTDEEKFITILGTRSVSHLRRVFDKYMTISGFQIEETIDRETSGNLENLLLAVVKSIRSIPAYLAETLYYAMKGAGTDDHTLIRVIVSRSEIDLFNIRKEFRKNFATSLYSMIKGDTSGDYKKALLLLCGGEDD
B2: AnxA5 single mutant R16E (natural protein, rat)
chain: ALRGTVTDFSGFDGEADAEVLRKAMKGLGTDEDSILNLLTARSNAQRQQIAEEFKTLFGRDLVNDMKSELTGKFEKLIVALMKPSRLYDAYELKHALKGAGTDEKVLTEIIASRTPEELRAIKQAYEEEYGSNLEDDVVGDTSGYYQRMLVVLLQANRDPDTAIDDAQVELDAQALFQAGELKWGTDEEKFITILGTRSVSHLRRVFDKYMTISGFQIEETIDRETSGNLENLLLAVVKSIRSIPAYLAETLYYAMKGAGTDDHTLIRVIVSRSEIDLFNIRKEFRKNFATSLYSMIKGDTSGDYKKALLLLCGGEDD
B3: AnxA5 single mutant R23E (natural protein, rat)
chain: ALRGTVTDFSGFDGRADAEVLEKAMKGLGTDEDSILNLLTARSNAQRQQIAEEFKTLFGRDLVNDMKSELTGKFEKLIVALMKPSRLYDAYELKHALKGAGTDEKVLTEIIASRTPEELRAIKQAYEEEYGSNLEDDVVGDTSGYYQRMLVVLLQANRDPDTAIDDAQVELDAQALFQAGELKWGTDEEKFITILGTRSVSHLRRVFDKYMTISGFQIEETIDRETSGNLENLLLAVVKSIRSIPAYLAETLYYAMKGAGTDDHTLIRVIVSRSEIDLFNIRKEFRKNFATSLYSMIKGDTSGDYKKALLLLCGGEDD
B4: AnxA5 single mutant K27E (natural protein, rat)
chain: ALRGTVTDFSGFDGRADAEVLRKAMEGLGTDEDSILNLLTARSNAQRQQIAEEFKTLFGRDLVNDMKSELTGKFEKLIVALMKPSRLYDAYELKHALKGAGTDEKVLTEIIASRTPEELRAIKQAYEEEYGSNLEDDVVGDTSGYYQRMLVVLLQANRDPDTAIDDAQVELDAQALFQAGELKWGTDEEKFITILGTRSVSHLRRVFDKYMTISGFQIEETIDRETSGNLENLLLAVVKSIRSIPAYLAETLYYAMKGAGTDDHTLIRVIVSRSEIDLFNIRKEFRKNFATSLYSMIKGDTSGDYKKALLLLCGGEDD
B5: AnxA5 single mutant K56E (natural protein, rat)
chain: ALRGTVTDFSGFDGRADAEVLRKAMKGLGTDEDSILNLLTARSNAQRQQIAEEFETLFGRDLVNDMKSELTGKFEKLIVALMKPSRLYDAYELKHALKGAGTDEKVLTEIIASRTPEELRAIKQAYEEEYGSNLEDDVVGDTSGYYQRMLVVLLQANRDPDTAIDDAQVELDAQALFQAGELKWGTDEEKFITILGTRSVSHLRRVFDKYMTISGFQIEETIDRETSGNLENLLLAVVKSIRSIPAYLAETLYYAMKGAGTDDHTLIRVIVSRSEIDLFNIRKEFRKNFATSLYSMIKGDTSGDYKKALLLLCGGEDD
B6: AnxA5 single mutant K191E (natural protein, rat)
chain: ALRGTVTDFSGFDGRADAEVLRKAMKGLGTDEDSILNLLTARSNAQRQQIAEEFKTLFGRDLVNDMKSELTGKFEKLIVALMKPSRLYDAYELKHALKGAGTDEKVLTEIIASRTPEELRAIKQAYEEEYGSNLEDDVVGDTSGYYQRMLVVLLQANRDPDTAIDDAQVELDAQALFQAGELKWGTDEEEFITILGTRSVSHLRRVFDKYMTISGFQIEETIDRETSGNLENLLLAVVKSIRSIPAYLAETLYYAMKGAGTDDHTLIRVIVSRSEIDLFNIRKEFRKNFATSLYSMIKGDTSGDYKKALLLLCGGEDD
B7: AnxA5 double mutant K27E/K191E (natural protein, rat)
chain: ALRGTVTDFSGFDGRADAEVLRKAMEGLGTDEDSILNLLTARSNAQRQQIAEEFKTLFGRDLVNDMKSELTGKFEKLIVALMKPSRLYDAYELKHALKGAGTDEKVLTEIIASRTPEELRAIKQAYEEEYGSNLEDDVVGDTSGYYQRMLVVLLQANRDPDTAIDDAQVELDAQALFQAGELKWGTDEEEFITILGTRSVSHLRRVFDKYMTISGFQIEETIDRETSGNLENLLLAVVKSIRSIPAYLAETLYYAMKGAGTDDHTLIRVIVSRSEIDLFNIRKEFRKNFATSLYSMIKGDTSGDYKKALLLLCGGEDD
B8: AnxA5 triple mutant R16E/K27E/K191E (natural protein, rat)
chain: ALRGTVTDFSGFDGEADAEVLRKAMEGLGTDEDSILNLLTARSNAQRQQIAEEFKTLFGRDLVNDMKSELTGKFEKLIVALMKPSRLYDAYELKHALKGAGTDEKVLTEIIASRTPEELRAIKQAYEEEYGSNLEDDVVGDTSGYYQRMLVVLLQANRDPDTAIDDAQVELDAQALFQAGELKWGTDEEEFITILGTRSVSHLRRVFDKYMTISGFQIEETIDRETSGNLENLLLAVVKSIRSIPAYLAETLYYAMKGAGTDDHTLIRVIVSRSEIDLFNIRKEFRKNFATSLYSMIKGDTSGDYKKALLLLCGGEDD
B9: AnxA5 triple mutant R23E/K27E/K191E (natural protein, rat)
chain: ALRGTVTDFSGFDGRADAEVLEKAMEGLGTDEDSILNLLTARSNAQRQQIAEEFKTLFGRDLVNDMKSELTGKFEKLIVALMKPSRLYDAYELKHALKGAGTDEKVLTEIIASRTPEELRAIKQAYEEEYGSNLEDDVVGDTSGYYQRMLVVLLQANRDPDTAIDDAQVELDAQALFQAGELKWGTDEEEFITILGTRSVSHLRRVFDKYMTISGFQIEETIDRETSGNLENLLLAVVKSIRSIPAYLAETLYYAMKGAGTDDHTLIRVIVSRSEIDLFNIRKEFRKNFATSLYSMIKGDTSGDYKKALLLLCGGEDD

Target: the molecule itself
Assay: 2D crystallisation on lipid monolayers, negative-stain TEM

Binding result, binds:
B1, B2, B3, B4, B5, B6, B7, B8, B9
